# Data reported in article PMC11005391, “Tetramerization is essential for the enzymatic function of the Pseudomonas aeruginosa virulence factor UDP-glucose pyrophosphorylase” (mBio, 2024).
# Substitutions are numbered along the chain they refer to. Names and notes keep the numbering of the source.
# B1: PaUGP N32A (enzyme)
# chain: MIKKCLFPAAGYGTRFLPATKAMPKEMLPVVAKPLIQYAVEEALEAGLSEIGIVTGRGKRSLEDHFDISYELEHQIRNTDKEKYLVGIRRLIDECTFAYTRQVEMKGLGHAILTGRPLIGDEPFAVVLADDLCLNLEGDSVLKQMVKLYNQFRCSIVAIQEVPPEETNKYGVIAGEMIRDDIFRVNTMVEKPKPEEAPSNLAIIGRYILTPDIFDLIEQTEPGKGGEIQITDALMKQAQDGCVLAYKFKGKRFDCGSAEGYIEATNFCYENLYKTGKAH
# notes: UDP-glucose pyrophosphorylase of Pseudomonas aeruginosa (galU), residues 1-279, point mutant of Strep-PaUGP; Same construct as m1; source: E. coli BL21(DE3), purified (Strep-Tactin Sepharose); not shown: Strep-tagII, N-terminal, kept
# B2: PaUGP Y70F (enzyme)
# chain: B1 chain with A32N, Y70F
# notes: as for B1
# B3: PaUGP H74A (enzyme)
# chain: B1 chain with A32N, H74A
# notes: as for B1
# B4: PaUGP E63D (enzyme)
# chain: B1 chain with A32N, E63D
# notes: as for B1
# B5: PaUGP R57K (enzyme)
# chain: B1 chain with A32N, R57K
# notes: as for B1
# B6: PaUGP R57A (enzyme)
# chain: B1 chain with A32N, R57A
# notes: as for B1
# B7: PaUGP N266D (enzyme)
# chain: B1 chain with A32N, N266D
# notes: as for B1
# B8: PaUGP H74F (enzyme)
# chain: B1 chain with A32N, H74F
# notes: as for B1
# B9: PaUGP Q75A (enzyme)
# chain: B1 chain with A32N, Q75A
# notes: as for B1
# B10: PaUGP K59A (enzyme)
# chain: B1 chain with A32N, K59A
# notes: as for B1
# B11: PaUGP K21Q (enzyme)
# chain: B1 chain with K21Q, A32N
# notes: as for B1
# B12: PaUGP R101K (enzyme)
# chain: B1 chain with A32N, R101K
# notes: as for B1
# B13: PaUGP R101A (enzyme)
# chain: B1 chain with A32N, R101A
# notes: as for B1
# B14: PaUGP K21A (enzyme)
# chain: B1 chain with K21A, A32N
# notes: UDP-glucose pyrophosphorylase of Pseudomonas aeruginosa (galU), residues 1-279, point mutant of Strep-PaUGP; source: E. coli BL21(DE3), purified (Strep-Tactin Sepharose); not shown: Strep-tagII, N-terminal, kept
# B15: PaUGP D67A + R101A double mutant (enzyme)
# chain: B1 chain with A32N, D67A, R101A
# notes: UDP-glucose pyrophosphorylase of Pseudomonas aeruginosa (galU), residues 1-279, double mutant of Strep-PaUGP; Same construct as m1; source: E. coli BL21(DE3), purified (Strep-Tactin Sepharose); not shown: Strep-tagII, N-terminal, kept
# B16: PaUGP Y70A (enzyme)
# chain: B1 chain with A32N, Y70A
# notes: as for B1
# B17: PaUGP E63A (enzyme)
# chain: B1 chain with A32N, E63A
# notes: as for B1
# B18: PaUGP D67A (enzyme)
# chain: B1 chain with A32N, D67A
# notes: as for B1
# B19: PaUGP N266A (enzyme)
# chain: B1 chain with A32N, N266A
# notes: as for B1
# B20: PaUGP Q75E (enzyme)
# chain: B1 chain with A32N, Q75E
# notes: as for B1
# B21: PaUGP N32D (enzyme)
# chain: B1 chain with A32D
# notes: as for B1
# B22: PaUGP D67N (enzyme)
# chain: B1 chain with A32N, D67N
# notes: as for B1
# B23: PaUGP K59R (enzyme)
# chain: B1 chain with A32N, K59R
# notes: as for B1
# B24: Pseudomonas aeruginosa uridine diphosphate-glucose pyrophosphorylase, wild type (Strep-PaUGP) (enzyme)
# chain: B1 chain with A32N
# notes: UDP-glucose pyrophosphorylase (UGP, EC 2.7.7.9) of Pseudomonas aeruginosa, galU gene amplified from plasmid PaCD00006903; residues 1-279; no cleavage is reported; Crystallised with UDP-Glc and Mg2+; also called PaUGP WT; Strep-tagged PaUGP; source: E. coli BL21(DE3), purified (Strep-Tactin Sepharose); not shown: Strep-tagII, N-terminal, kept
# B25: PaUGP K21A + R101A double mutant (enzyme)
# chain: B1 chain with K21A, A32N, R101A
# Target: the molecule itself
# Assay: native gel or EMSA; blue native PAGE, uniform 12% polyacrylamide gel with 3.5% stacking gel, 13.5 ug of each protein loaded, Coomassie-stained bands
row,Protein,stoichiometry N
1,B1,4
2,B2,4
3,B3,4
4,B4,4
5,B5,4
6,B6,4
7,B7,4
8,B8,4
9,B9,4
10,B10,4

# Target: Q9I291
# Assay: SEC; as a1, but the more diluted sample of mutants with dilution-dependent behaviour (footnote b of Table 1; broken lines in Fig. 5 and Fig. S9)
Protein,N of the monomer peak (minor peak),N of the monomer peak (main peak)
B5,1.2,–
B11,–,1.4
B12,1.2,–
B13,1.2,–
B6,1.2,–
B14,–,1.2

# Target: the molecule itself
# Assay: SEC; Superdex 200 10/300 GL, 50 mM Tris-HCl pH 8.0, 300 mM NaCl, 10 mM MgCl2; oligomeric state calculated from elution volumes of proteins of known size; addition of UTP, Glc-1-P or UDP-Glc did not affect the oligomerization of the WT
Protein,stoichiometry N,N of a minor peak
B1,4.4,–
B2,3.7,–
B15,2,–
B16,2.5,3.8
B3,3.7,–
B4,3.9,–
B17,3.6,–
B18,2.3,5.5
B7,4.2,–
B8,3.5,–
B19,4,–
B9,4.2,–
B10,3.6,–
B20,3.5,–
B21,4.7,–
B22,2.1,3.8
B23,4,–

# Target: the molecule itself
# Assay: as above
# Remark: another data set of the same source
row,Protein,stoichiometry N
1,B24,4

# Target: Q9I291
# Assay: as above
row,Protein,N of the monomer peak (minor peak)
1,B1,1.1
2,B2,1.3
3,B16,1.3
4,B3,1.3
5,B4,1.3
6,B7,1.2
7,B8,1.1
8,B19,1.2
9,B9,1.2
10,B21,1.4

# Target: the molecule itself
# Assay: SEC; as a1, but the more diluted sample of mutants with dilution-dependent behaviour (footnote b of Table 1; broken lines in Fig. 5 and Fig. S9)
Protein,stoichiometry N,N of a minor peak
B5,3.2,–
B11,–,2.7
B12,2.1,–
B13,1.8,3.6
B6,2.4,–
B14,–,2.3

# Target: the molecule itself
# Assay: cell-based or functional assay
row,Protein,"In vitro activity (% of WT), EnzChek pyrophosphate assay, forward reaction"
1,B1,56.2 % of WT
2,B2,47.2 % of WT
3,B15,1.57 % of WT
4,B16,4.08 % of WT
5,B3,60.3 % of WT
6,B4,5.68 % of WT
7,B5,2.36 % of WT
8,B17,7.6 % of WT
9,B11,1.26 % of WT
10,B18,3.31 % of WT
11,B12,1.31 % of WT
12,B13,0.83 % of WT
13,B6,1.28 % of WT
14,B7,105 % of WT
15,B25,0.32 % of WT
16,B19,64.9 % of WT
17,B14,5 % of WT
18,B10,2.31 % of WT
19,B21,110 % of WT
20,B22,2.54 % of WT
21,B23,1.66 % of WT
